# Assay results published in patent CN106046162A (DONG ZHUMING BIOTECH CO LTD, dated 2016).
# What was measured:
# 人PD-1-Fc重组蛋白(RD) [1] = biological target: T1, 人PD-1-Fc重组蛋白(RD) (human, UniProt Q15116 21-167, limits assumed); assay: ELISA, 3-fold dilutions of the antibody in 12 steps, goat anti-mouse IgG-Fc-HRP; the text prints the coat as hPD-L1-Fc but reports affinity for PD-1
# T1 construct: Bought recombinant protein (RD); also called hPD-1-Fc; hPD-1; not shown: Fc part of the bought fusion protein
# T1 sequence (Q15116 21-167 limits assumed): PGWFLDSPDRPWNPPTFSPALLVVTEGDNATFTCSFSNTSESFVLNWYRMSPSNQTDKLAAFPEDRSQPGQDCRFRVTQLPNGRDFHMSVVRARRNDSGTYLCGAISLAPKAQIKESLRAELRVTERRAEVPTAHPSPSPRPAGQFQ
# 人PD-1-Fc重组蛋白(RD) [2] = biological target: T1, 人PD-1-Fc重组蛋白(RD); assay: Biacore blocking assay, hPD-1-Fc on the chip, 2-fold dilutions of the antibody in 7 steps; blocks PD-1 binding to B7-H1
binder,measurement,setting,value
"抗人PD-1单克隆抗体2-189-H-1 (antibody, V domains shown, Mouse hybridoma antibody (CCTCC C2015160), purified on Protein A; also called 本抗体; hPD-1抗体) VH: QVQLKESGPGLVAPSQSLSITCTVSGFSLTTYGVSWVRQPPGKGLEWLGVIWGDGSTDYHSVLISRLSITKDISKSQVFLKLNSLQSDDTATYYCAQQGSRGDYWGQGTTLTVSS VL: DVLLTQTPLSLPVSLGDQASISCRSSQTIVHSNGITYLEWYLQKPGQSPKALISKVSNRLSGVPDRFSGSGSGTDFTLKISRVEAEDLGVYYCFQGSHIPYTFGGGTKLEIK",EC50,人PD-1-Fc重组蛋白(RD) [1],1.07 nM
same,EC50,人PD-1-Fc重组蛋白(RD) [2],64.4 nM
